Measurements: US9999664B2, “HIV-1 gp120 mini V3 loop and uses thereof” (The Scripps Research Institute, priority 2011, dated 2018)

Experiments:
[1] = test system: PGT 127; assay: Neoglycolipid microarray binding, PGT 127; settings: PGT 127 at 10 μg/ml pre-complexed with biotinylated anti-human-IgG; 5 fmol/spot
Procedure: (§1) The microarrays (designated N-glycan-related Array Set 1) consisted of NGLs prepared by reductive amination (70) or oxime ligation (71) (Table S5). These were robotically printed onto nitrocellulose-coated glass slides as described (72), each at two levels (2 and 5 fmol/spot) in duplicate. The binding assays (70) were performed at ambient temperature. The PGTs 127 and 128 were pre-complexed with biotinylated anti-human-IgG (Vector) at a 1:3 ratio, w/w, before applying onto the slides at a final concentration of 10 μg/ml. Biotinylated ConA (Vector) was tested at 0.5 μg/ml. Binding was detected with Alexa-Fluor 647 labelled streptavidin (Molecular Probes) at 1 μg/ml. Microarray data analysis was performed with dedicated software. Binding signals were oligosaccharide dose-related. Results at 5 fmol/spot with selected oligomannose NGLs (prepared by reductive amination) are in FIG. 9A, and the full data with the 50 NGLs are shown in Table S6. Included for comparison are the results with human 2G12 (Polymun Scientific) taken from an earlier experiment performed using a different version of microarrays (73). Antibody 2G12 was analyzed at 1:10000 dilution (without pre-complexation), and the binding was detected with biotinylated anti-human-IgG followed by Alexa-Fluor 647 labelled streptavidin.

[2] = test system: PGT 128; assay: Neoglycolipid microarray binding, PGT 128; settings: PGT 128 at 10 μg/ml pre-complexed with biotinylated anti-human-IgG; 5 fmol/spot
Procedure: as §1

[3] = molecular target: T1, plant lectin ConA (Canavalia ensiformis, UniProt P02866); assay: Neoglycolipid microarray binding, ConA; settings: biotinylated ConA at 0.5 μg/ml
T1 construct: purchased Vector
Procedure: as §1

[4] = test system: 2G12; settings: 2G12 at 1:10000 dilution; earlier experiment, different version of the microarray; cited from earlier work
[5] = molecular target: gp120 JR-CSF (HIV-1 JR-CSF) (UniProt P20871); assay: gp120 ELISA
[6] = molecular target: gp120 JR-FL (HIV-1 JR-FL); assay: gp120 ELISA
[7] = molecular target: HIV-1 JR-CSF envelope (Env) on pseudovirus (HIV-1 JR-CSF) (UniProt P20871); assay: cell-based or functional assay
[8] = molecular target: HIV-1 JR-FL envelope (Env) on pseudovirus (HIV-1 JR-FL); assay: cell-based or functional assay
[9] = molecular target: HIV-1 BaL envelope (Env) on pseudovirus (HIV-1 BaL); assay: cell-based or functional assay

| Compound | Fluorescence signal intensity 127 [1] | Fluorescence signal intensity 128 [2] | Fluorescence signal intensity ConA [3] | Fluorescence signal intensity 2G12 [4] | fold change in gp120 binding (EC50 variant/EC50 WT) [5] [fold] | fold change in gp120 binding (EC50 variant/EC50 WT) [6] [fold] | Fold change in neutralization (IC50 variant/IC50 WT antibody) [7] [fold] | Fold change in neutralization (IC50 variant/IC50 WT antibody) [8] [fold] | Fold change in neutralization (IC50 variant/IC50 WT antibody) [9] [fold] |
| --- | --- | --- | --- | --- | --- | --- | --- | --- | --- |
| CCCCCCCCCCCCCCCCOCC(COP(=O)(O)OCCNCC(NC(C)=O)C(O)C(OC1OC(CO)C(O)C(O)C1O)C(O)CO)OCCCCCCCCCCCCCCCC (centres unmarked) [Man1GN1-DH, Manβ-4GlcNAc-DH] | — (Signal less than 1) | — (Signal less than 1) | — (Signal less than 1) | 101 |  |  |  |  |  |
| CCCCCCCCCCCCCCCCOCC(COP(=O)(O)OCCNCC(OC1OC(CO)C(O)C(O)C1O)C(O)C(O)C(O)CO)OCCCCCCCCCCCCCCCC (stereo not drawn) [Man2(α2)-DH, Manα-2Man-DH] | — (Signal less than 1) | — (Signal less than 1) | — (Signal less than 1) | 73 |  |  |  |  |  |
| CCCCCCCCCCCCCCCCOCC(COP(=O)(O)OCCNCC(O)C(OC1OC(CO)C(O)C(O)C1O)C(O)C(O)CO)OCCCCCCCCCCCCCCCC (stereo not drawn) [Man2(α3)-DH, Manα-3Man-DH] | — (Signal less than 1) | 82 | — (Signal less than 1) | 136 |  |  |  |  |  |
| CCCCCCCCCCCCCCCCOCC(COP(=O)(O)OCCNCC(O)C(O)C(O)C(O)COC1OC(CO)C(O)C(O)C1O)OCCCCCCCCCCCCCCCC (stereo not drawn) [Man2(α6)-DH, Manα-6Man-DH] | — (Signal less than 1) | — (Signal less than 1) | 608 | 205 |  |  |  |  |  |
| CCCCCCCCCCCCCCCCOCC(COP(=O)(O)OCCNCC(NC(C)=O)C(O)C(OC1OC(CO)C(O)C(OC2OC(CO)C(O)C(O)C2O)C1O)C(O)CO)OCCCCCCCCCCCCCCCC (centres unmarked) [Man2GN1-DH, Manα-3Manβ-4GlcNAc-DH] | — (Signal less than 1) | 16 | 575 | — (Signal less than 1) |  |  |  |  |  |
| CCCCCCCCCCCCCCCCOCC(COP(=O)(O)OCCNCC(NC(C)=O)C(O)C(OC1OC(CO)C(OC2OC(COC3OC(CO)C(O)C(O)C3O)C(O)C(O)C2O)C(O)C1NC(C)=O)C(O)CO)OCCCCCCCCCCCCCCCC (centres unmarked) [Man2aGN2-DH, Manα-6Manβ-4GlcNAcβ-4GlcNAc-DH] | — (Signal less than 1) | — (Signal less than 1) | 1,923 | — (Signal less than 1) |  |  |  |  |  |
| CCCCCCCCCCCCCCCCOCC(COP(=O)(O)OCCNCC(O)C(OC1OC(CO)C(O)C(O)C1O)C(O)C(O)COC1OC(CO)C(O)C(O)C1O)OCCCCCCCCCCCCCCCC (stereo not drawn) [Man3(α3,α6)-DH] | — (Signal less than 1) | — (Signal less than 1) | 759 | — (Signal less than 1) |  |  |  |  |  |
| CCCCCCCCCCCCCCCCOCC(COP(=O)(O)OCCNCC(NC(C)=O)C(O)C(OC1OC(CO)C(OC2OC(COC3OC(CO)C(O)C(O)C3O)C(O)C(OC3OC(CO)C(O)C(O)C3O)C2O)C(O)C1NC(C)=O)C(O)COC1OC(C)C(O)C(O)C1O)OCCCCCCCCCCCCCCCC (centres unmarked) [Man3FGN2-DH] | — (Signal less than 1) | — (Signal less than 1) | 20,011 | 52 |  |  |  |  |  |
| CCCCCCCCCCCCCCCCOCC(COP(=O)(O)OCCNCC(NC(C)=O)C(O)C(OC1OC(CO)C(OC2OC(COC3OC(CO)C(O)C(O)C3O)C(O)C(OC3OC(CO)C(O)C(O)C3O)C2OC2OCC(O)C(O)C2O)C(O)C1NC(C)=O)C(O)CO)OCCCCCCCCCCCCCCCC (centres unmarked) [Man3XylGN2-DH] | — (Signal less than 1) | — (Signal less than 1) | 977 | — (Signal less than 1) |  |  |  |  |  |
| CCCCCCCCCCCCCCCCOCC(COP(=O)(O)OCCNCC(NC(C)=O)C(O)C(OC1OC(CO)C(OC2OC(COC3OC(CO)C(O)C(O)C3O)C(O)C(OC3OC(CO)C(O)C(O)C3O)C2O)C(O)C1NC(C)=O)C(O)CO)OCCCCCCCCCCCCCCCC (centres unmarked) [Man3aGN2-DH] | — (Signal less than 1) | — (Signal less than 1) | 14,192 | 24 |  |  |  |  |  |
| CCCCCCCCCCCCCCCCOCC(COP(=O)(O)OCCNCC(NC(C)=O)C(O)C(OC1OC(CO)C(OC2OC(COC3OC(CO)C(O)C(OC4OC(CO)C(O)C(O)C4O)C3O)C(O)C(OC3OC(CO)C(O)C(O)C3O)C2O)C(O)C1NC(C)=O)C(O)CO)OCCCCCCCCCCCCCCCC (centres unmarked) [Man4aGN2-DH] | — (Signal less than 1) | 26 | 2,885 | — (Signal less than 1) |  |  |  |  |  |
| PGT 128 IgG variant HC A30Q (antibody) |  |  |  |  | 1.9 | 1.5 | 2.4 | 11.4 |  |
| PGT 128 IgG variant HC A70D (antibody) |  |  |  |  | 0.5 | 1 | 1.9 |  |  |
| PGT 128 IgG variant HC C32A (antibody) |  |  |  |  |  |  | > 2000 | > 3000 | > 4000 |
| PGT 128 IgG variant HC C32A C52bA (antibody) |  |  |  |  |  |  | > 2000 | > 3000 | > 4000 |
| PGT 128 IgG variant HC C52bA (antibody) |  |  |  |  |  |  | > 2000 | > 3000 | > 4000 |
| PGT 128 IgG variant HC D100dA (antibody) |  |  |  |  | 0.1 | 0.1 | 0.5 | 0.3 |  |
| PGT 128 IgG variant HC F79A (antibody) |  |  |  |  | 0.5 | 0.6 | 0.9 |  |  |
| PGT 128 IgG variant HC K64A (antibody) |  |  |  |  | 0.8 | 0.4 | 1.2 | 1.3 |  |
| PGT 128 IgG variant HC K75A (antibody) |  |  |  |  | 2.1 | 1.6 | 2.9 | 2.9 |  |
| PGT 128 IgG variant HC P74A (antibody) |  |  |  |  | 0.9 | 0.8 | 0.8 | 1.2 |  |
| PGT 128 IgG variant HC S28A (antibody) |  |  |  |  | 0.8 | 0.6 | 1.2 | 0.9 |  |
| PGT 128 IgG variant HC T73A (antibody) |  |  |  |  | 1.6 | 2.2 | 1.6 | 77.6 |  |
| PGT 128 IgG variant HC T100cA (antibody) |  |  |  |  | 1.2 | 0.9 | 1.5 | 1.2 |  |
| PGT 128 IgG variant LC D95aA (antibody) |  |  |  |  |  |  | 68.5 | > 3000 | > 4000 |
| PGT 128 IgG variant LC N94A (antibody) |  |  |  |  | 0.7 | 1.1 | 3.5 | 1.3 |  |
| PGT 128 IgG variant LC W95A (antibody) |  |  |  |  |  |  | > 2000 | > 3000 | > 4000 |
